Biological target: FUS-eGFP (C-terminally eGFP-tagged Fused in Sarcoma) (UniProt P35637)
Experiment: FRET or BRET

In the case of “FUS-eGFP (C-terminally eGFP-tagged Fused in Sarcoma) (from UniProt P35637 1-526) (natural protein)”, the apparent homoFRET efficiency (E Homo) is reported as 0.7 and the steady-state fluorescence anisotropy in droplets (loss by homoFRET) is reported as 0.08.

Reference: PMC11511825
